Source: patent publication US20040091475A1 (Chugai, published 2004)

Experiments:
[1] = target: human TPO receptor (MPL) expressed on Ba/F3 cells (human) (UniProt P40238); test: cell-based or functional assay
[2] = target: T1, human Integrin Associated Protein (IAP) expressed on mouse leukemia cell line L1210 (human, UniProt Q08722 19-323); test: flow cytometry on L1210 cells expressing human IAP; COS7 culture supernatant; mouse anti-FLAG antibody, then FITC-labeled anti-mouse IgG antibody
T1 construct: whole, on cells; also called human IAP; hIAP/L1210
Method: Flow cytometry was performed using the culture supernatants of COS7 cells prepared in Example 6.3 (1) to measure the binding of the MABL2-scFVs and sc(Fv)₂ to human Integrin Associated Protein (IAP) antigen. The culture supernatants to be tested or a culture supernatant of COS7 cells as a control was added to 2×10⁵ cells of the mouse leukemia cell line L1210 expressing human IAP. After incubating on ice and washing, 10 μg/mL of the mouse anti-FLAG antibody (SIGMA) was added and then the cells were incubated and washed. Then, the FITC labeled anti-mouse IgG antibody (BECTON DICKINSON) was added thereto and the cells were incubated and washed again. The fluorescence intensity was measured using the FACScan apparatus (BECTON DICKINSON).

[3] = target: T2, human TPO receptor (MPL) expressed on Ba/F3 cells (human, UniProt P40238 26-635); test: cell-based or functional assay
T2 sequence (looked up): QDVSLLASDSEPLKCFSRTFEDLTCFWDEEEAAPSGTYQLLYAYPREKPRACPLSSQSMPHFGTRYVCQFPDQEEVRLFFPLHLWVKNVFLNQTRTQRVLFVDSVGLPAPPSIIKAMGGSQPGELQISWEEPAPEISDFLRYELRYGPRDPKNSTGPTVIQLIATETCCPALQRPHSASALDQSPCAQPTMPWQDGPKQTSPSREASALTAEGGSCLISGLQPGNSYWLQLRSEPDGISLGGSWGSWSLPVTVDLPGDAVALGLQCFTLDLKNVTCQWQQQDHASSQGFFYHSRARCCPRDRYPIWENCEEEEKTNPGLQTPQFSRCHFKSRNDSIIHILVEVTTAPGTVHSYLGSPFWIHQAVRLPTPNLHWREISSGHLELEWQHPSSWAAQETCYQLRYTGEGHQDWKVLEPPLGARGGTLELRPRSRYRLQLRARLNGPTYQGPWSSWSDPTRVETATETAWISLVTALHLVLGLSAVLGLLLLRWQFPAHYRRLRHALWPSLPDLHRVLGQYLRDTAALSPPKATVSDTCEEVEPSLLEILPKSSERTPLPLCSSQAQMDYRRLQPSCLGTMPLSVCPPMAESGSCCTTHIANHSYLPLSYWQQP

[4] = target: T1, human Integrin Associated Protein (IAP) …; test: flow cytometry on L1210 cells expressing human IAP; COS7 culture supernatant; FITC-labeled anti-human IgG antibody
[5] = target: T1, human Integrin Associated Protein (IAP) …; test: as above; remark: listed apart in the source
[6] = target: T1, human Integrin Associated Protein (IAP) …; test: flow cytometry, 10 µg/ml antibody on L1210 cells expressing human IAP (panel B), pCOS1/L1210 cells as control (panel A); FITC-labeled anti-mouse IgG antibody
Method: Flow cytometry was performed using the purified dimer of MABL2-scFv <HL-5> and the purified sc(Fv)₂ in order to evaluate the binding to human Integrin Associated Protein (IAP) antigen. 10 μg/ml of the purified dimer of MABL2-scFv <HL-5>, the purified sc(Fv)₂, the antibody MABL-2 as a positive control or a mouse IgG (Zymed) as a negative control was added to 2×10⁵ cells of the mouse leukemia cell line L1210 expressing human IAP (hIAP/L1210) or the cell line L1210 transformed with pCOS1 (pCOS1/L1210) as a control. After incubating on ice and washing, 10 μg/mL of the mouse anti-FLAG antibody (SIGMA) was added and then the cells were incubated and washed. FITC labeled anti-mouse IgG antibody (BECTON DICKINSON) was added thereto and the cells were incubated and washed again. Then the fluorescence intensity was measured using the FACScan apparatus (BECTON DICKINSON).

T1 sequence (Q08722 19-323): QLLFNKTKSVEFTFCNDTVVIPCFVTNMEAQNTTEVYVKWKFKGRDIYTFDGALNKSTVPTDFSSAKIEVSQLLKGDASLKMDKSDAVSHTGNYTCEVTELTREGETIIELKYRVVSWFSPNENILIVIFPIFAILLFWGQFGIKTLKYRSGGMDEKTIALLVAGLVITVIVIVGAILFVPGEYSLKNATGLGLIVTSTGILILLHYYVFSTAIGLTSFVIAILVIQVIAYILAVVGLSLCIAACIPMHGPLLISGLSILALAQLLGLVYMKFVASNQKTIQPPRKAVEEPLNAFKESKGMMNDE

human TPO (R&D Systems) (from UniProt P40225 22-353) (ligand)
proliferation of Ba/F3 cells expressing human TPO receptor (BaF/mpl), WST-8; ED50 [1]: 0.027 nM

B1: antibody MABL-2 sc(Fv)2 (scFv)
chain: QVQLQQSGPELVKPGASVKMSCKASGYTFANHVIHWVKQKPGQGLEWIGYIYPYNDGTKYNEKFKDKATLTSDKSSTTAYMDLSSLASEDSAVYYCARGGYYTYDDWGQGTTLTVSSGGGGSGGGGSGGGGSDVVMTQSPLSLPVSLGDQASISCRSSQSLVHSNGKTYLHWYLQKPGQSPKLLIYKVSNRFSGVPDRFSGSGSVTDFTLMISRVEAEDLGVYFCSQSTHVPYTFGGGTKLEIKGGGGSGGGGSGGGGSVDSQVQLQQSGPELVKPGASVKMSCKASGYTFANHVIHWVKQKPGQGLEWIGYIYPYNDGTKYNEKFKDKATLTSDKSSTTAYMDLSSLASEDSAVYYCARGGYYTYDDWGQGTTLTVSSGGGGSGGGGSGGGGSDVVMTQSPLSLPVSLGDQASISCRSSQSLVHSNGKTYLHWYLQKPGQSPKLLIYKVSNRFSGVPDRFSGSGSVTDFTLMISRVEAEDLGVYFCSQSTHVPYTFGGGTKLEIKDYKDDDDK
notes: Single chain polypeptide with two H chain V regions and two L chain V regions of MABL-2, FLAG at the C-terminus; eluted at the position of the monomer; also called pCHOM2(Fv)2
binding result [2]: binds

B2: reconstructed 12B5 single chain Fv (sc12B5), culture supernatant of COS-7 cells (scFv)
scFv: QVQLVQSGGGLVRPGGSLSLSCAVSGITLRTYGMHWVRQAPGKGLEWVAGISFDGRSEYYADSVQGRFTISRDSSKNTLYLQMNSLRAEDTAVYYCARGAHYGFDIWGQGTMVTVSSGGGGSGGGGSGGGGSDIQMTQSPSTLSASIGDRVTITCRASEGIYHWLAWYQQKPGKAPKLLIYKASSLASGAPSRFSGSGSGTDFTLTISSLQPDDFATYYCQQYSNYPLTFGGGTKLEIKDYKDDDDK
TPO-like agonist activity: proliferation of Ba/F3 cells expressing human TPO receptor (BaF/mpl), WST-8; ED50 [3]: 75 nM

B3: sc12B5 monomer (scFv)
scFv: QVQLVQSGGGLVRPGGSLSLSCAVSGITLRTYGMHWVRQAPGKGLEWVAGISFDGRSEYYADSVQGRFTISRDSSKNTLYLQMNSLRAEDTAVYYCARGAHYGFDIWGQGTMVTVSSGGGGSGGGGSGGGGSDIQMTQSPSTLSASIGDRVTITCRASEGIYHWLAWYQQKPGKAPKLLIYKASSLASGAPSRFSGSGSGTDFTLTISSLQPDDFATYYCQQYSNYPLTFGGGTKLEIKDYKDDDDK
TPO-like agonist activity: proliferation of Ba/F3 cells expressing human TPO receptor (BaF/mpl), WST-8; ED50 [3]: 4440 nM

B4: sc12B5 dimer (scFv)
scFv: QVQLVQSGGGLVRPGGSLSLSCAVSGITLRTYGMHWVRQAPGKGLEWVAGISFDGRSEYYADSVQGRFTISRDSSKNTLYLQMNSLRAEDTAVYYCARGAHYGFDIWGQGTMVTVSSGGGGSGGGGSGGGGSDIQMTQSPSTLSASIGDRVTITCRASEGIYHWLAWYQQKPGKAPKLLIYKASSLASGAPSRFSGSGSGTDFTLTISSLQPDDFATYYCQQYSNYPLTFGGGTKLEIKDYKDDDDK
TPO-like agonist activity: fold against monovalent sc12B5 [3]: ~400 fold | TPO-like agonist activity: proliferation of Ba/F3 cells expressing human TPO receptor (BaF/mpl), WST-8; ED50 [3]: 10.1 nM

B5: chimera MABL-1 antibody (antibody, V domains shown)
VH: QVQLQQSGPDLVKPGASVKMSCKASGYTFVNHVMHWVKQKPGQGLEWIGYIYPYNDGTKYNEKFKGKATLTSEKSSSAAYMELSSLASEDSAVYYCARGGYYSYDDWGQGTTLTVSS
VL: DVVMTQTPLSLPVSLGDQASISCRSSQSLLHSKGNTYLQWYLQKPGQSPKLLIYKVSNRFSGVPDRFSGSGSGTDFTLKISRVEAEDLGVYFCSQSTHVPYTSGGGTKLEIK
notes: Mouse MABL-1 V regions cloned into HEF-gamma and HEF-kappa expression vectors (human constant regions); tested as COS7 culture supernatant
binding result [4]: binds

B6: chimera MABL-2 antibody (antibody, V domains shown)
VH: QVQLQQSGPELVKPGASVKMSCKASGYTFANHVIHWVKQKPGQGLEWIGYIYPYNDGTKYNEKFKDKATLTSDKSSTTAYMDLSSLASEDSAVYYCARGGYYTYDDWGQGTTLTVSS
VL: DVVMTQSPLSLPVSLGDQASISCRSSQSLVHSNGKTYLHWYLQKPGQSPKLLIYKVSNRFSGVPDRFSGSGSVTDFTLMISRVEAEDLGVYFCSQSTHVPYTFGGGTKLEIK
notes: Mouse MABL-2 V regions cloned into HEF-gamma and HEF-kappa expression vectors (human constant regions); tested as COS7 culture supernatant
binding result [5]: binds

B7: mouse monoclonal antibody MABL-2 (antibody, V domains shown)
VH: QVQLQQSGPELVKPGASVKMSCKASGYTFANHVIHWVKQKPGQGLEWIGYIYPYNDGTKYNEKFKDKATLTSDKSSTTAYMDLSSLASEDSAVYYCARGGYYTYDDWGQGTTLTVSS
VL: DVVMTQSPLSLPVSLGDQASISCRSSQSLVHSNGKTYLHWYLQKPGQSPKLLIYKVSNRFSGVPDRFSGSGSVTDFTLMISRVEAEDLGVYFCSQSTHVPYTFGGGTKLEIK
notes: Whole mouse antibody from hybridoma MABL-2 (H chain amplified with the MHC-gamma2a primer, kappa L chain); also called MABL-2 (intact)
binding result [6]: binds

B8: antibody 12B5 (IgG) (antibody, V domains shown)
VH: QVQLVQSGGGLVRPGGSLSLSCAVSGITLRTYGMHWVRQAPGKGLEWVAGISFDGRSEYYADSVQGRFTISRDSSKNTLYLQMNSLRAEDTAVYYCARGAHYGFDIWGQGTMVTVSS
VL: DIQMTQSPSTLSASIGDRVTITCRASEGIYHWLAWYQQKPGKAPKLLIYKASSLASGAPSRFSGSGSGTDFTLTISSLQPDDFATYYCQQYSNYPLTFGGGTKLEIK
TPO-like agonist activity: proliferation of Ba/F3 cells expressing human TPO receptor (BaF/mpl), WST-8; ED50 [3]: 29 nM

B9: 12B5Fab fragment (Fab, V domains shown)
VH: QVQLVQSGGGLVRPGGSLSLSCAVSGITLRTYGMHWVRQAPGKGLEWVAGISFDGRSEYYADSVQGRFTISRDSSKNTLYLQMNSLRAEDTAVYYCARGAHYGFDIWGQGTMVTVSS
VL: DIQMTQSPSTLSASIGDRVTITCRASEGIYHWLAWYQQKPGKAPKLLIYKASSLASGAPSRFSGSGSGTDFTLTISSLQPDDFATYYCQQYSNYPLTFGGGTKLEIK
TPO-like agonist activity: proliferation of Ba/F3 cells expressing human TPO receptor (BaF/mpl), WST-8; ED50 [3]: 34700 nM
